Test results: US20080176263A1, “Materials and Methods for Efficient and Accurate Detection of Analytes” (University of Florida Research Foundation, Inc., priority 2006, published 2008)
Values joined by “and” are separate entries in the source; they are usually repeats but may differ in a detail not shown here. Equal entries are not always repeated.

Columns and labels:
[1] = system: substrate TNO211; experiment: Study #1: time-to-detection of protease activity, cleavage of substrate TNO211 by fluorescence; type: biochemical; settings: protease concentrations ≦100 ng/ml
Method: 1. Prepare a suitable standard curve diluted in enzyme buffer. Typically, a maximum of 50 ng/ml final protease concentration in the assay is used. Keep on ice until use.
2. Prepare the substrate solution by diluting the Stock Reconstituted Substrate (in DMSO) to 5.56 uM in the desired Assay Buffer (EDTA-free or EDTA-containing) to produce 90 ul of total EDTA-free or EDTA-containing Assay Buffer per well.
3. Pipette 90 ul substrate solution into each well to be assayed.
4. Take an initial fluorescence reading. To minimize interference due to the fluorescence of endogenous proteins in the samples, we routinely use excitation/emission wavelengths of 355/535 nm, respectively.
5. Pipette 10 ul standards, samples, or Enzyme Buffer (BLANK) into each well of the 96-well fluorescence assay plate.
6. Measure the change in fluorescence continuously until the standard range of interest is sufficiently resolved. Protect from light at RT or 37° C. between measurements.
7. Determine the best-fit curve relating the Change in Fluorescence (AF) vs.
[Protease]. […]
One hundred, 10, 1, and 0.1 ng of pronase, MMP-2, MMP-9, and clostridial collagenase were assayed in a total reaction volume of 100 ul for cleavage of substrate TNO211 as detected by fluorescence. The reactions were monitored for approximately one hour after the addition of the proteases.

[2] = system: substrate TNO211; experiment: Study #3: protease detection sensitivity, visual detection under UV; type: biochemical; settings: within 10 minutes; from 17% and 28% of pronase activity
Method: To investigate the visual detection limits of pronase, standard curves (1000-0 ng) of the protease were reacted in 50, 100, and 200 uM substrate diluted in the assay buffer. Digital photographs were taken under white light and UV. These observations were compared to those obtained quantitatively using the fluorescence plate reader. The observed detection limits for pronase were used to calculate theoretical detection limits for MMP-2 and MMP-9 (17% and 28% as active as pronase, respectively).

activity as % of pronase's observed activity [1]: 17±4% and 17%
theoretical detection limit calculated from pronase limit [2]: approximately 735 ng
B1: MMP-2: protease assayed for cleavage of substrate TNO211 (protein)
chain: YNFFPRKPKWDKNQITYRIIGYTPDLDPETVDDAFARAFQVWSDVTPLRFSRIHDGEADIMINFGRWEHGDGYPFDGKDGLLAHAFAPGTGVGGDSHFDDDELWTLGEGQVVRVKYGNADGEYCKFPFLFNGKEYNSCTDTGRSDGFLWCSTTYNFEKDGKYGFCPHEALFTMGGNAEGQPCKFPFRFQGTSYDSCTTEGRTDGYRWCGTTEDYDRDKKYGFCPETAMSTVGGNSEGAPCVFPFTFLGNKYESCTSAGRSDGKMWCATTANYDDDRKWGFCPDQGYSLFLVAAHEFGHAMGLEHSQDPGALMAPIYTYTKNFRLSQDDIKGIQELYGASPDIDLGTGPTPTLGPVTPEICKQDIVFDGIAQIRGEIFFFKDRFIWRTVTPRDKPMGPLLVATFWPELPEKIDAVYEAPQEEKAVFFAGNEYWIYSASTLERGYPKPLTSLGLPPDVQRVDAAFNWSKNKKTYIFAGDKFWRYNEVKKKMDPGFPKLIADAWNAIPDNLDAVVDLQGGGHSYFFKGAYYLKLENQSLKSVKFGSIKSDWLGC
